Molecular target: (UreABC)3 urease apoprotein (Klebsiella aerogenes, UniProt P18316 1-100; P18315 1-106; P18314 1-567)
Assay: native MS

Chain of (UreABC)3 urease apoprotein (P18316 whole entry, chain 1 of 3): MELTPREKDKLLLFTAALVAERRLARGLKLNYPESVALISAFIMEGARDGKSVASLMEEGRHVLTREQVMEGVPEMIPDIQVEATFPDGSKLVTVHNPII
Chain of (UreABC)3 urease apoprotein (P18315 whole entry, chain 2 of 3): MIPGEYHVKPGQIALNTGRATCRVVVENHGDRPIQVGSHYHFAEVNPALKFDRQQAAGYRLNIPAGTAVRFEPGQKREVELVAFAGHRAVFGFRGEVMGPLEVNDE
Chain of (UreABC)3 urease apoprotein (P18314 whole entry, chain 3 of 3): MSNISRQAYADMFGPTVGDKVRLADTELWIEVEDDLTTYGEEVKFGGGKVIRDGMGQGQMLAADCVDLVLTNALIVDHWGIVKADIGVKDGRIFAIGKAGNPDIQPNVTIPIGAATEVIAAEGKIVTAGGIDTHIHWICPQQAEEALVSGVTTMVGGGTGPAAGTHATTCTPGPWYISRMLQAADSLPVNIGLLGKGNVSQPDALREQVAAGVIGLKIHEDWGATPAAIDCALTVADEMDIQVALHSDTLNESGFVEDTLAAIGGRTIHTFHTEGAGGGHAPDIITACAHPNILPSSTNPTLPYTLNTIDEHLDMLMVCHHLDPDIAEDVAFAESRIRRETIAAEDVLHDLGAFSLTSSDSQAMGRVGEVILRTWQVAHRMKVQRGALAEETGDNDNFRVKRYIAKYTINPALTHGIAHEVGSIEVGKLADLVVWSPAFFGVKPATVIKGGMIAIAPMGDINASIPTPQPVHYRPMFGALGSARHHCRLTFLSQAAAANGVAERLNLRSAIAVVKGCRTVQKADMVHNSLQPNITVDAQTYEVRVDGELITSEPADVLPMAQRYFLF

B1: maltose binding protein-UreD fusion protein (MBP-UreD) (natural protein, Klebsiella aerogenes, UniProt Q09063 1-270, looked up)
chain: MLPPLKKGWQATLDLRFHQAGGKTVLASAQHVGPLTVQRPFYPEEETCHLYLLHPPGGIVGGDELTISAHLAPGCHTLITMPGASKFYRSSGAQALVRQQLTLAPQATLEWLPQDAIFFPGANARLFTTFHLCASSRLLAWDLLCLGRPVIGETFSHGTLSNRLEVWVDNEPLLVERLHLQEGELSSIAERPWVGTLLCYPATDALLDGVRDALAPLGLYAGASLTDRLLTVRFLSDDNLICQRVMRDVWQFLRPHLTGKSPVLPRIWLT
binding result: binds

Reference: PMC5884726 (Structure (London, England : 1993), 2018)
